Measured values published in the supplement of paper PMC12042874.
± gives the uncertainty stated by the source.

assay: amyloid nucleation score (Sup35N fusion, yeast selection) (log enrichment); library NNK2; higher = more nucleation; inactive = no reads after selection
In short: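 Sup35N fusions to peptides of 20 random codons were expressed in psi-negative yeast, induced 24 hours with 100 μM copper sulfate, and grown 7 days at 30°C on medium lacking adenine and uracil. Input and output plasmid inserts were sequenced by Illumina. The nucleation score is the DiMSum log enrichment of output over input reads, centred on the mode score of non-aggregating sequences. Sequences with under 100 input reads were excluded.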

For SIFITATCNVH, the amyloid nucleation score was “inactive”.
For CMVRLKPDFITALRLSLRGR, the amyloid nucleation score was “inactive”.
For VVCLPVISLCWIFLHIIF, the amyloid nucleation score was “inactive”.
With FSLSCM the amyloid nucleation score was “inactive”.
For YKGEFFYWFKCVLYYKGNT, the amyloid nucleation score was “inactive”.
With YIIGNVRNVRLWFRLSMNEV the amyloid nucleation score was “inactive”.
In the case of LPVQAYAS, the amyloid nucleation score is reported as “inactive”.
With RDLSLNFIHPLRFGY the amyloid nucleation score was “inactive”.
In the case of FFTVFLQDIMVWRDQWIYPQ, the amyloid nucleation score is reported as “inactive”.
In the case of DHMRHGCGYHLWFSGLSWRF, the amyloid nucleation score is reported as “inactive”.

NENKGNF and RVEGFRFYFEVRLGSVSRKL are within error of each other in amyloid nucleation score: -0.947 ± 0.54 for the first, -0.42 ± 0.76 for the second.

CESWMGAKTITLELTGGDSE and RECQHF are within error of each other in amyloid nucleation score: 0.664 ± 0.38 for the first, -0.077 ± 0.74 for the second.

LLMQYPSLVMVAGRFLVANL and SISRVMEMTSLSIHRFIRLC are within error of each other in amyloid nucleation score: -0.082 ± 0.5 for the first, -0.918 ± 1.1 for the second.

LDMRSRLHFDDCTRRGYLGM and YWCLA are within error of each other in amyloid nucleation score: -0.166 ± 0.65 for the first, -0.737 ± 0.45 for the second.

Compared with ANLWNEGFPLNGLHDNGIDQ, RYGLLYSTSLACWFGS is higher in amyloid nucleation score: -0.379 ± 0.49 for the first, 4.36 ± 0.058 for the second.

Going from IYNNLTCWSDASHGVCFGMD to MVSLIPEMHFNVMLEKVACA, the amyloid nucleation score falls from 4.67 ± 0.058 to 0.562 ± 0.81.

Compared with QIPNILVGNDMICVKKVLNW, SSYLPLQSTAIGHHSSRYGL is lower in amyloid nucleation score: 2.97 ± 0.051 for the first, 1.08 ± 0.34 for the second.

Compared with SREYLSRFVTFYLMYFYAKS, IQHTVMWNALLLALAVSRLR is higher in amyloid nucleation score: -0.516 ± 0.64 for the first, 0.667 ± 0.21 for the second.

TVCSIMASFQYRDSRRQRSG and GRENWELHIRYVR are within error of each other in amyloid nucleation score: 4.02 ± 0.078 for the first, 4.06 ± 0.063 for the second.

KELRQSVVIM and ALLTVFFNLVVVWDVKAVTP are within error of each other in amyloid nucleation score: 0.644 ± 0.35 for the first, -0.159 ± 1 for the second.

YFRWGLSSKASLWHVRWALG and IFLIK are within error of each other in amyloid nucleation score: 0.409 ± 0.8 for the first, -0.249 ± 1.1 for the second.

Going from WLKNKLMLVLFTESLPNRSP to SIRSKGDILSCSRTTFC, the amyloid nucleation score rises from -1.02 ± 0.61 to 5.32 ± 0.071.

KSKRMVTMHKMNENTGLLGD and ANKLLESCFSQCLRSALFEW are within error of each other in amyloid nucleation score: 0.543 ± 0.5 for the first, -0.369 ± 0.79 for the second.

Compared with FIILYGSGMRLNFQGI, LWHFVLWYMWLLIGDVVGVC is lower in amyloid nucleation score: 0.968 ± 0.23 for the first, -0.459 ± 1.1 for the second.

Compared with FSMDHDDRSSCKAWHRSEFE, LWVIISCSDYLNWLNRGMNE is higher in amyloid nucleation score: 1 ± 0.2 for the first, 5.45 ± 0.056 for the second.

CGLCMEGYSHEMIDRLSSIS and SWRNSKISMPNSAFTSQDTV are within error of each other in amyloid nucleation score: 0.227 ± 0.56 for the first, 0.052 ± 0.31 for the second.

First: SNQMWLMVCRVE
Second: TLNNCRPFCLLELANLINRD
The amyloid nucleation score of the first is lower: 0.112 ± 0.19 for the first, 3.4 ± 0.058 for the second.

RIWMLY and LMYFMNGL are within error of each other in amyloid nucleation score: 0.42 ± 0.66 for the first, 0.045 ± 0.63 for the second.

NRVTCYSMDRNIM and CFLESGSLMLYEV are within error of each other in amyloid nucleation score: -0.776 ± 1.1 for the first, -0.081 ± 1.1 for the second.

Going from RAVRDLLVLNIINVAVTSIN to KRSLNLLKGLIYL, the amyloid nucleation score falls from 7.495 ± 0.043 to -1.05 ± 1.1.

VYAFLYFWGFRHGVVYV and SHFSYKECRSAVRMLQYNGA are within error of each other in amyloid nucleation score: -0.099 ± 0.44 for the first, 0.719 ± 0.52 for the second.

First: SLVNATGRWINVVTNFRLNG
Second: CVFPRFYIHDFSTLGTMYTL
The amyloid nucleation score of the first is higher: 7.565 ± 0.049 for the first, 4.24 ± 0.12 for the second.

Going from VMMIQTVQFRLTSKSSGMSR to RERLL, the amyloid nucleation score falls from 5.259 ± 0.043 to -0.114 ± 0.51.

FWLAWLAVRTNHFLAKITD and WNIVVSYNDLFV are within error of each other in amyloid nucleation score: -0.267 ± 0.28 for the first, -1.07 ± 0.76 for the second.

Going from ATTVNK to TLTYFLNSSWD, the amyloid nucleation score falls from 5.76 ± 0.061 to 1.93 ± 0.25.

WMYGWERSRVYDGNIVDRRW and DTLWEGSLLNVYFVDVIRST are within error of each other in amyloid nucleation score: 0.035 ± 1 for the first, 0.06 ± 0.55 for the second.

First: NSIYLCLSAGRFDSMKVNSE
Second: KNYHCTLSWLWFMACFSGIP
The amyloid nucleation score of the first is higher: 4.22 ± 0.076 for the first, 2.61 ± 0.15 for the second.

KGPTSLLYLVMCFMVLQQLR and QTNTGIVESQRSVCLNKIAR are within error of each other in amyloid nucleation score: -0.447 ± 0.78 for the first, 0.234 ± 0.17 for the second.

Compared with LMSMVCSESL, FVCMIILS is higher in amyloid nucleation score: -0.555 ± 0.35 for the first, 4.89 ± 0.064 for the second.

Going from LWLMVCMMYM to SILLPPFSRAFDSPRIYITP, the amyloid nucleation score falls from 2.09 ± 0.15 to -0.82 ± 0.55.
